Laboratory results as given in IntAct's records for PubMed 12829691.

B1: E3 ubiquitin-protein ligase CBL-B (Homo sapiens), Q13191 (parent)
chain: MANSMNGRNPGGRGGNPRKGRILGIIDAIQDAVGPPKQAAADRRTVEKTWKLMDKVVRLCQNPKLQLKNSPPYILDILPDTYQHLRLILSKYDDNQKLAQLSENEYFKIYIDSLMKKSKRAIRLFKEGKERMYEEQSQDRRNLTKLSLIFSHMLAEIKAIFPNGQFQGDNFRITKADAAEFWRKFFGDKTIVPWKVFRQCLHEVHQISSGLEAMALKSTIDLTCNDYISVFEFDIFTRLFQPWGSILRNWNFLAVTHPGYMAFLTYDEVKARLQKYSTKPGSYIFRLSCTRLGQWAIGYVTGDGNILQTIPHNKPLFQALIDGSREGFYLYPDGRSYNPDLTGLCEPTPHDHIKVTQEQYELYCEMGSTFQLCKICAENDKDVKIEPCGHLMCTSCLTAWQESDGQGCPFCRCEIKGTEPIIVDPFDPRDEGSRCCSIIDPFGMPMLDLDDDDDREESLMMNRLANVRKCTDRQNSPVTSPGSSPLAQRRKPQPDPLQIPHLSLPPVPPRLDLIQKGIVRSPCGSPTGSPKSSPCMVRKQDKPLPAPPPPLRDPPPPPPERPPPIPPDNRLSRHIHHVESVPSRDPPMPLEAWCPRDVFGTNQLVGCRLLGEGSPKPGITASSNVNGRHSRVGSDPVLMRKHRRHDLPLEGAKVFSNGHLGSEEYDVPPRLSPPPPVTTLLPSIKCTGPLANSLSEKTRDPVEEDDDEYKIPSSHPVSLNSQPSHCHNVKPPVRSCDNGHCMLNGTHGPSSEKKSNIPDLSIYLKGDVFDSASDPVPLPPARPPTRDNPKHGSSLNRTPSDYDLLIPPLGEDAFDALPPSLPPPPPPARHSLIEHSKPPGSSSRPSSGQDLFLLPSDPFVDLASGQVPLPPARRLPGENVKTNRTSQDYDQLPSCSDGSQAPARPPKPRPRRTAPEIHHRKPHGPEAALENVDAKIAKLMGEGYAFEEVKRALEIAQNNVEVARSILREFAFPPPVSPRLNL

Variants of: B1
Conditions: with sh3k1_human SH3KBP1, Q96B97
Sequence of sh3k1_human SH3KBP1, Q96B97 (Q96B97 whole entry): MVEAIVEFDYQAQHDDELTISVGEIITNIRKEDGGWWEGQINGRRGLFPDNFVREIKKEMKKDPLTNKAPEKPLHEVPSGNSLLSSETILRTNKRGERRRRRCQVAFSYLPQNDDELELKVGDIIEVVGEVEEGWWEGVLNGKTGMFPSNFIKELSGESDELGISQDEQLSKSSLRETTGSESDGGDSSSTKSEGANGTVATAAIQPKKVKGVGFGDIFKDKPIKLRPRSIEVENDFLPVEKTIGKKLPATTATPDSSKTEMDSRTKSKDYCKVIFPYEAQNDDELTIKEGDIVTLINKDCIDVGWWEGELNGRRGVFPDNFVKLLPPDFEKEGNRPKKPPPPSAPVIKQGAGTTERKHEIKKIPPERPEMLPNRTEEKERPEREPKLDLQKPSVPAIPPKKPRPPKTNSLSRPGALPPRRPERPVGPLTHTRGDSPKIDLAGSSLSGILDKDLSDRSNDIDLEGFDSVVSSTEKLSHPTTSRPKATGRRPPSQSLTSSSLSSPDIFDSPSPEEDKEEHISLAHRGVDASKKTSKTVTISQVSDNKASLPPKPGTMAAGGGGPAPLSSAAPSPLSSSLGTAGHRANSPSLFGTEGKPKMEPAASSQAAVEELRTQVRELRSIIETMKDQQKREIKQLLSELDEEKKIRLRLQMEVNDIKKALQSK

Row | effect of a mutation on the interaction | Variant
1 | decreasing interaction | R911A
